# Reference: patent publication US6395526B1, “DNA polymerase” (Takara Shuzo Co., Ltd., priority 1995, dated 2002)
# T1: second DNA polymerase-constituting protein (translation product of ORF4)
# T1 chain: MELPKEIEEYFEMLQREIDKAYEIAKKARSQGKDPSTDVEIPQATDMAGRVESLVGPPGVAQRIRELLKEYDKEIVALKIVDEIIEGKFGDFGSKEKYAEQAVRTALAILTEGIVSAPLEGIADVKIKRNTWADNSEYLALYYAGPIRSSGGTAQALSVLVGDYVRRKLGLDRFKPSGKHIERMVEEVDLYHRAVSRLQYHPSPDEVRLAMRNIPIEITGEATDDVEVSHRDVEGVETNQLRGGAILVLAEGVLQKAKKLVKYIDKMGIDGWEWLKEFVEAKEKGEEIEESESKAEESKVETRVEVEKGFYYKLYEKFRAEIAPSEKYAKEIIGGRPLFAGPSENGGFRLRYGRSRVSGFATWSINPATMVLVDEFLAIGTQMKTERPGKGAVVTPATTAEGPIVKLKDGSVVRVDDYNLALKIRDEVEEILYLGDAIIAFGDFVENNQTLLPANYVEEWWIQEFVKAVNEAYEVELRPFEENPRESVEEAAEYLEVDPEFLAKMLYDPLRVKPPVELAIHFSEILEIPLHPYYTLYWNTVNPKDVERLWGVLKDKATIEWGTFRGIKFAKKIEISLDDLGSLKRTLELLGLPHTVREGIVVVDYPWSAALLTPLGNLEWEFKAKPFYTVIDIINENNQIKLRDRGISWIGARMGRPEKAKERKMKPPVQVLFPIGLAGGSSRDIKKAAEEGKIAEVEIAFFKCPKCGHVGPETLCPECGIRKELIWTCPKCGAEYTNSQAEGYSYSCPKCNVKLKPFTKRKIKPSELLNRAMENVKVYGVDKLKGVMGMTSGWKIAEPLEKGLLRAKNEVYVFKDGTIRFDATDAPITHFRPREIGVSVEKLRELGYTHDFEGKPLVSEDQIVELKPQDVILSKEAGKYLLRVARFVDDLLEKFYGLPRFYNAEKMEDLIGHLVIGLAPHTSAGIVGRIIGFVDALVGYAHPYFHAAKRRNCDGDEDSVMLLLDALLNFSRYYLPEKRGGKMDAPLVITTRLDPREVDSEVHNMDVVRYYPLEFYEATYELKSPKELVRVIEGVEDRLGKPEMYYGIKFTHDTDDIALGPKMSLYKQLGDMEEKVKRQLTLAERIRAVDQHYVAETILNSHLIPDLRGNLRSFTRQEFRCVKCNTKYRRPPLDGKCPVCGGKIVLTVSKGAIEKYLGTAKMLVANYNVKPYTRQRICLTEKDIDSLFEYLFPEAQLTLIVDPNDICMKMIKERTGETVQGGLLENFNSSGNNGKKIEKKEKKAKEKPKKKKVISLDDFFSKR
# T2: second DNA polymerase-constituting protein (translation product of ORF4) (Pyrococcus furiosus, UniProt P81409 1-1263)
# T2 construct: Subunit of the two-protein DNA polymerase from Pyrococcus furiosus DSM3638; Expressed in E. coli, either together with ORF3 from pFU1001 or alone from pFU-ORF4; About 140,000 Da on SDS-PAGE; also called ORF4 translation product; ORF4-derived translation product
# T2 sequence: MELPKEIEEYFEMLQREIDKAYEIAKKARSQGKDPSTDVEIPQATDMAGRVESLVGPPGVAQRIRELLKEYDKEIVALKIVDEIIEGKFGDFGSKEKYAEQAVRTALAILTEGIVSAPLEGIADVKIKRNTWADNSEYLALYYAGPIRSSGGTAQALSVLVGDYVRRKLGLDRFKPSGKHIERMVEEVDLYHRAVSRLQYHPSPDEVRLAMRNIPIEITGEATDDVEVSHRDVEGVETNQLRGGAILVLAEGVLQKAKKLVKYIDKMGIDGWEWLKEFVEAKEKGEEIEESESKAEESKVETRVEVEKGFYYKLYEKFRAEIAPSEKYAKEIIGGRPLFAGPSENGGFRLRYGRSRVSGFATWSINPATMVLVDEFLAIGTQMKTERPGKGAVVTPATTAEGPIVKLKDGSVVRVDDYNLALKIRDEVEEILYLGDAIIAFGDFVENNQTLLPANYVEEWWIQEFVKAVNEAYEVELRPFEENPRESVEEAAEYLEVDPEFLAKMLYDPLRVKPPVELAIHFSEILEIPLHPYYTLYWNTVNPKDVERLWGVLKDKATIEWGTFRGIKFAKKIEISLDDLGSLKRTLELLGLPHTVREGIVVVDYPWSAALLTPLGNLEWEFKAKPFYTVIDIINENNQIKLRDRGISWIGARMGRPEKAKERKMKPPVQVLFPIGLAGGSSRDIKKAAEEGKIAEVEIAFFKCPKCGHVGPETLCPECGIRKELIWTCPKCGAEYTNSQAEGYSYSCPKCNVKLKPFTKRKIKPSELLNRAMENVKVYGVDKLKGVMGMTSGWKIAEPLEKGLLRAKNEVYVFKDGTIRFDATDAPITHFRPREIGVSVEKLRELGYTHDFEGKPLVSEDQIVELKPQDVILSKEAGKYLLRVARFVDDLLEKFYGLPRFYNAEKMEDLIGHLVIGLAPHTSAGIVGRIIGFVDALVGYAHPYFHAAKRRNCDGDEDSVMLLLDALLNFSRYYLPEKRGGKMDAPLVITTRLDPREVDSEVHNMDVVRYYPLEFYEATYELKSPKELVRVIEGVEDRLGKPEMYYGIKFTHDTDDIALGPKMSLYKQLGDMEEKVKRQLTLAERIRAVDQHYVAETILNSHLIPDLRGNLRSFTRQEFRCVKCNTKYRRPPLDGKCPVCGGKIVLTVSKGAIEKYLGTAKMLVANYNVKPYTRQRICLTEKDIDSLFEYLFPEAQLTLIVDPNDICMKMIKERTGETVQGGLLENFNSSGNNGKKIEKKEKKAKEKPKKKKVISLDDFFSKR
# Key:
# [1] = biological target: T1, second DNA polymerase-constituting …
# [2] = biological target: T2, second DNA polymerase-constituting …; assay: gel filtration (Superose 6) of the co-expressed, purified polymerase; activity peaks at about 385 kDa and about 220 kDa
# Description: Ten milliliters of an enzyme solution obtained by collecting as an active fraction was desalted and concentrated by ultrafiltration, and dissolved in buffer A+150 mM NaCl to yield 3.5 ml of an enzyme solution. The resulting enzyme solution was then applied to a Hi Trap Heparin column (manufactured by Pharmacia), previously equilibrated with the same buffer. A chromatogram was developed on a linear concentration gradient from 150 to 650 mM NaCl using an FPLC system, to yield an active fraction eluted at 400 mM NaCl. Five milliliters of this fraction was concentrated to 120 µl of a solution including 50 mM potassium phosphate, pH 6.5, 2 mM 2-mercaptoethanol, and 75 mM NaCl by repeating desalting and concentration using ultrafiltration. The resulting concentrated solution was then applied to a gel filtration column of Superose 6 (manufactured by Pharmacia), previously equilibrated with the same buffer, and eluted with the same buffer. As a result, a fraction having a DNA polymerase activity was eluted at positions corresponding to retention times of 34.7 minutes and 38.3 minutes. […] These molecular weights corresponded to a complex formed by the translation product of ORF3 and the translation product of ORF4 in a molar ratio of 1:2 and another complex formed by the above translation products in a molar ratio of 1:1, respectively. […]
binder,measurement,setting,value
"first DNA polymerase-constituting protein (translation product of ORF3) (enzyme, Subunit of the two-protein DNA polymerase from Pyrococcus furiosus DSM3638; Expressed in E. coli, either together with ORF4 from pFU1001 or alone from pFU-ORF3; About 90,000 Da on SDS-PAGE; also called ORF3 translation product; ORF3-derived translation product) MDEFVKSLLKANYLITPSAYYLLREYYEKGEFSIVELVKFARSRESYIITDALATEFLKVKGLEPILPVETKGGFVSTGESQKEQSYEESFGTKEEISQEIKEGESFISTGSEPLEEELNSIGIEEIGANEELVSNGNDNGGEAIVFDKYGYPMVYAPEEIEVEEKEYSKYEDLTIPMNPDFNYVEIKEDYDVVFDVRNVKLKPPKVKNGNGKEGEIIVEAYASLFRSRLKKLRKILRENPELDNVVDIGKLKYVKEDETVTIIGLVNSKREVNKGLIFEIEDLTGKVKVFLPKDSEDYREAFKVLPDAVVAFKGVYSKRGILYANKFYLPDVPLYRRQKPPLEEKVYAILISDIHVGSKEFCENAFIKFLEWLNGNVETKEEEEIVSRVKYLIIAGDVVDGVGVYPGQYADLTIPDIFDQYEALANLLSHVPKHITMFIAPGNHDAARQAIPQPEFYKEYAKPIYKLKNAVIISNPAVIRLHGRDFLIAHGRGIEDVVGSVPGLTHHKPGLPMVELLKMRHVAPMFGGKVPIAPDPEDLLVIEEVPDVVHMGHVHVYDAVVYRGVQLVNSATWQAQTEFQKMVNIVPTPAKVPVVDIDTAKVVKVLDFSGWC",thermostable DNA polymerase activity,[1],"although neither of the ORF translation products thus purified exhibited the DNA polymerase activity when assayed alone, thermostable DNA polymerase activity was exhibited when they were mixed together"
same,binding result,[2],binds
